Measured values published in publication PMC7116145.

Target: CPTX, biotinylated on a C-terminal Avitag (immobilised in SPR) (UniProt P23435)
Experiment: SPR

Kd: 4.5 µM
B1: mouse glutamate receptor A4 amino-terminal domain (domain or fragment)
chain: GAFPSSVQIGGLFIRNTDQEYTAFRLAIFLHNTSPNASEAPFNLVPHVDNIETANSFAVTNAFCSQYSRGVFAIFGLYDKRSVHTLTSFCSALHISLITPSFPTEGESQFVLQLRPSLRGALLSLLDHYEWNCFVFLYDTDRGYSILQAIMEKAGQNGWHVSAICVENFNDVSYRQLLEELDRRQEKKFVIDCEIERLQNILEQIVSVGKHVKGYHYIIANLGFKDISLERFIHGGANVTGFQLVDFNTPMVTKLMDRWKKLDQREYPGSETPPKYTSALTYDGVLVMAETFRSLRRQKIDISRRGNAGDCLANPAAPWGQGIDMERTLKQVRIQGLTGNVQFDHYGRRVNYTMDVFELKSTGPRKVGYWNDMDKLVLIQDAPTLGNDTAAIENRTVVVT
